Measurements reported in patent US20140087995A1 (published 2014).
Numbered stars: 1 amine (or outer) side, 2 acyl side, 3 side chain; on linkers, the order of the positions; unused ones are H or OH. Bridge positions count the residues as written; N and C are the ends. Side chains are listed from the residue outwards. Ends that are not written are not given here. * marks the point of attachment. C20 diacid = O=C(O)CCCCCCCCCCCCCCCCCCC(=O)*; γGlu = O=C(O)[C@H](CCC(=O)[*:2])N[*:1]; AEEA = NCCOCCOCC(=O)O

T1: human amylin receptor (amylin 3(a) receptor: human calcitonin receptor plus RAMP-3) (human, UniProt P30988 25-474; O60896 24-148)
T1 sequence (looked up) 1: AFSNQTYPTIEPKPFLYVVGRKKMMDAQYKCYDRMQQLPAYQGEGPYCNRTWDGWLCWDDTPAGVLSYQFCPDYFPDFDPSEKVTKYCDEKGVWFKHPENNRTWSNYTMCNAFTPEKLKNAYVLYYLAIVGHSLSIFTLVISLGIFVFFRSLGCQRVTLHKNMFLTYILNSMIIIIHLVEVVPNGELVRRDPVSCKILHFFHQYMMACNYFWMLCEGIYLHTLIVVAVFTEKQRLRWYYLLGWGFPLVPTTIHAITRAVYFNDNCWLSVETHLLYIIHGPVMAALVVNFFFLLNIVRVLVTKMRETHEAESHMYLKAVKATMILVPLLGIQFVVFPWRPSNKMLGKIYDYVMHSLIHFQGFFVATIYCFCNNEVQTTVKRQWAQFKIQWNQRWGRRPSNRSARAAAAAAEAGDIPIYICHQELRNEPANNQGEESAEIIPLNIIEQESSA
T1 sequence (looked up) 2: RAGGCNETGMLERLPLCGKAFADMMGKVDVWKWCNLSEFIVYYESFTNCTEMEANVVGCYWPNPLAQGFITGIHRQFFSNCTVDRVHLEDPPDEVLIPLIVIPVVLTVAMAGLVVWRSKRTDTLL

T2: human calcitonin receptor (human, UniProt P30988 25-474)
T2 sequence (looked up): T1 sequence (looked up) 1

B1: N^ε1-[2-[2-[2-[[(4S)-4-carboxy-4-(19-carboxynonadecanoylamino)butanoyl]amino]ethoxy]ethoxy]acetyl]-[Arg17,Pro21,Pro27,Pro31,His35]-h-amylin (peptide)
peptide: K([AEEA-γGlu-C20 diacid])CNTATCATQRLANFLRHSSPNFGAIPSSTPVGSHTY-NH2
modifications: disulfide 2-7; N-terminus assumed
SMILES: CC[C@H](C)[C@H](NC(=O)[C@H](C)NC(=O)CNC(=O)[C@H](Cc1ccccc1)NC(=O)[C@H](CC(N)=O)NC(=O)[C@@H]1CCCN1C(=O)[C@H](CO)NC(=O)[C@H](CO)NC(=O)[C@H](Cc1c[nH]cn1)NC(=O)[C@H](CCCNC(=N)N)NC(=O)[C@H](CC(C)C)NC(=O)[C@H](Cc1ccccc1)NC(=O)[C@H](CC(N)=O)NC(=O)[C@H](C)NC(=O)[C@H](CC(C)C)NC(=O)[C@H](CCCNC(=N)N)NC(=O)[C@H](CCC(N)=O)NC(=O)[C@@H](NC(=O)[C@H](C)NC(=O)[C@@H]1CSSC[C@H](NC(=O)[C@@H](N)CCCCNC(=O)COCCOCCNC(=O)CC[C@H](NC(=O)CCCCCCCCCCCCCCCCCCC(=O)O)C(=O)O)C(=O)N[C@@H](CC(N)=O)C(=O)N[C@@H]([C@@H](C)O)C(=O)N[C@@H](C)C(=O)N[C@@H]([C@@H](C)O)C(=O)N1)[C@@H](C)O)C(=O)N1CCC[C@H]1C(=O)N[C@@H](CO)C(=O)N[C@@H](CO)C(=O)N[C@H](C(=O)N1CCC[C@H]1C(=O)N[C@H](C(=O)NCC(=O)N[C@@H](CO)C(=O)N[C@@H](Cc1c[nH]cn1)C(=O)N[C@H](C(=O)N[C@@H](Cc1ccc(O)cc1)C(N)=O)[C@@H](C)O)C(C)C)[C@@H](C)O
notes: also called compound 57
B2: N^ε1-[(4S)-4-carboxy-4-(19-carboxynonadecanoylamino)butanoyl]-[His14,Arg17,Pro21,Pro27,His35]-h-amylin (peptide)
peptide: K([γGlu-C20 diacid])CNTATCATQRLAHFLRHSSPNFGAIPSSTNVGSHTY-NH2
modifications: disulfide 2-7; N-terminus assumed
SMILES: CC[C@H](C)[C@H](NC(=O)[C@H](C)NC(=O)CNC(=O)[C@H](Cc1ccccc1)NC(=O)[C@H](CC(N)=O)NC(=O)[C@@H]1CCCN1C(=O)[C@H](CO)NC(=O)[C@H](CO)NC(=O)[C@H](Cc1c[nH]cn1)NC(=O)[C@H](CCCNC(=N)N)NC(=O)[C@H](CC(C)C)NC(=O)[C@H](Cc1ccccc1)NC(=O)[C@H](Cc1c[nH]cn1)NC(=O)[C@H](C)NC(=O)[C@H](CC(C)C)NC(=O)[C@H](CCCNC(=N)N)NC(=O)[C@H](CCC(N)=O)NC(=O)[C@@H](NC(=O)[C@H](C)NC(=O)[C@@H]1CSSC[C@H](NC(=O)[C@@H](N)CCCCNC(=O)CC[C@H](NC(=O)CCCCCCCCCCCCCCCCCCC(=O)O)C(=O)O)C(=O)N[C@@H](CC(N)=O)C(=O)N[C@@H]([C@@H](C)O)C(=O)N[C@@H](C)C(=O)N[C@@H]([C@@H](C)O)C(=O)N1)[C@@H](C)O)C(=O)N1CCC[C@H]1C(=O)N[C@@H](CO)C(=O)N[C@@H](CO)C(=O)N[C@H](C(=O)N[C@@H](CC(N)=O)C(=O)N[C@H](C(=O)NCC(=O)N[C@@H](CO)C(=O)N[C@@H](Cc1c[nH]cn1)C(=O)N[C@H](C(=O)N[C@@H](Cc1ccc(O)cc1)C(N)=O)[C@@H](C)O)C(C)C)[C@@H](C)O
notes: also called compound 66
B3: N^ε1-[(4S)-4-carboxy-4-(19-carboxynonadecanoylamino)butanoyl]-[Arg17,Pro21,Pro27,His35]-h-amylin (peptide)
peptide: K([γGlu-C20 diacid])CNTATCATQRLANFLRHSSPNFGAIPSSTNVGSHTY-NH2
modifications: disulfide 2-7; N-terminus assumed
SMILES: CC[C@H](C)[C@H](NC(=O)[C@H](C)NC(=O)CNC(=O)[C@H](Cc1ccccc1)NC(=O)[C@H](CC(N)=O)NC(=O)[C@@H]1CCCN1C(=O)[C@H](CO)NC(=O)[C@H](CO)NC(=O)[C@H](Cc1c[nH]cn1)NC(=O)[C@H](CCCNC(=N)N)NC(=O)[C@H](CC(C)C)NC(=O)[C@H](Cc1ccccc1)NC(=O)[C@H](CC(N)=O)NC(=O)[C@H](C)NC(=O)[C@H](CC(C)C)NC(=O)[C@H](CCCNC(=N)N)NC(=O)[C@H](CCC(N)=O)NC(=O)[C@@H](NC(=O)[C@H](C)NC(=O)[C@@H]1CSSC[C@H](NC(=O)[C@@H](N)CCCCNC(=O)CC[C@H](NC(=O)CCCCCCCCCCCCCCCCCCC(=O)O)C(=O)O)C(=O)N[C@@H](CC(N)=O)C(=O)N[C@@H]([C@@H](C)O)C(=O)N[C@@H](C)C(=O)N[C@@H]([C@@H](C)O)C(=O)N1)[C@@H](C)O)C(=O)N1CCC[C@H]1C(=O)N[C@@H](CO)C(=O)N[C@@H](CO)C(=O)N[C@H](C(=O)N[C@@H](CC(N)=O)C(=O)N[C@H](C(=O)NCC(=O)N[C@@H](CO)C(=O)N[C@@H](Cc1c[nH]cn1)C(=O)N[C@H](C(=O)N[C@@H](Cc1ccc(O)cc1)C(N)=O)[C@@H](C)O)C(C)C)[C@@H](C)O
notes: also called compound 60
B4: N^ε1-[2-[2-[2-[[(4S)-4-carboxy-4-(19-carboxynonadecanoylamino)butanoyl]amino]ethoxy]ethoxy]acetyl]-[Arg17,Pro21,Pro27,Pro34,His35]-h-amylin (peptide)
peptide: K([AEEA-γGlu-C20 diacid])CNTATCATQRLANFLRHSSPNFGAIPSSTNVGPHTY-NH2
modifications: disulfide 2-7; N-terminus assumed
SMILES: CC[C@H](C)[C@H](NC(=O)[C@H](C)NC(=O)CNC(=O)[C@H](Cc1ccccc1)NC(=O)[C@H](CC(N)=O)NC(=O)[C@@H]1CCCN1C(=O)[C@H](CO)NC(=O)[C@H](CO)NC(=O)[C@H](Cc1c[nH]cn1)NC(=O)[C@H](CCCNC(=N)N)NC(=O)[C@H](CC(C)C)NC(=O)[C@H](Cc1ccccc1)NC(=O)[C@H](CC(N)=O)NC(=O)[C@H](C)NC(=O)[C@H](CC(C)C)NC(=O)[C@H](CCCNC(=N)N)NC(=O)[C@H](CCC(N)=O)NC(=O)[C@@H](NC(=O)[C@H](C)NC(=O)[C@@H]1CSSC[C@H](NC(=O)[C@@H](N)CCCCNC(=O)COCCOCCNC(=O)CC[C@H](NC(=O)CCCCCCCCCCCCCCCCCCC(=O)O)C(=O)O)C(=O)N[C@@H](CC(N)=O)C(=O)N[C@@H]([C@@H](C)O)C(=O)N[C@@H](C)C(=O)N[C@@H]([C@@H](C)O)C(=O)N1)[C@@H](C)O)C(=O)N1CCC[C@H]1C(=O)N[C@@H](CO)C(=O)N[C@@H](CO)C(=O)N[C@H](C(=O)N[C@@H](CC(N)=O)C(=O)N[C@H](C(=O)NCC(=O)N1CCC[C@H]1C(=O)N[C@@H](Cc1c[nH]cn1)C(=O)N[C@H](C(=O)N[C@@H](Cc1ccc(O)cc1)C(N)=O)[C@@H](C)O)C(C)C)[C@@H](C)O
notes: also called compound 58

Molecular target: T1, human amylin receptor (amylin 3(a) …)
Test: cell-based or functional assay

Row | Binder | Ratio hCT/hAmylin funct. | hAmylin-R funct. EC50 (pM)
1 | B1 | 35 | 89 pM
2 | B2 | 20.1 | 27 pM
3 | B3 | 15.3 | 351 pM
4 | K([γGlu-C20 diacid])CNTATCATQRLAEFLRHSSPNFGAIPSSTNVGPHTY-NH2 (disulfide 2-7) |  | 101 pM
5 | B4 | 21.9 | 47 pM

Molecular target: T2, human calcitonin receptor
Test: cell-based or functional assay

Row | Binder | hCTR funct. EC50 (pM)
6 | B1 | 3120 pM
7 | B2 | 542 pM
8 | B3 | 5360 pM
9 | K([γGlu-C20 diacid])CNTATCATQRLAEFLRHSSPNFGAIPSSTNVGPHTY-NH2 (disulfide 2-7) | 1450 pM
10 | B4 | 1030 pM

Molecular target: T1, human amylin receptor (amylin 3(a) …)
Test: cell-based or functional assay
Remark: another data set of the same source

Row | Binder | Ratio hCT/hAmylin funct. | hAmylin-R funct. EC50 (pM)
11 | B1 | 35 | 89 pM
12 | B2 | 20.1 | 27 pM
13 | B3 | 15.3 | 351 pM
14 | K([γGlu-C20 diacid])CNTATCATQRLAEFLRHSSPNFGAIPSSTNVGPHTY-NH2 (disulfide 2-7) |  | 101 pM
15 | B4 | 21.9 | 47 pM

Molecular target: T2, human calcitonin receptor
Test: cell-based or functional assay
Remark: another data set of the same source

Row | Binder | hCTR funct. EC50 (pM)
16 | B1 | 3120 pM
17 | B2 | 542 pM
18 | B3 | 5360 pM
19 | K([γGlu-C20 diacid])CNTATCATQRLAEFLRHSSPNFGAIPSSTNVGPHTY-NH2 (disulfide 2-7) | 1450 pM
20 | B4 | 1030 pM

Molecular target: T1, human amylin receptor (amylin 3(a) …)
Test: SPA competition, displacement of 125I-rat amylin from membranes of BHK cells with human calcitonin receptor + RAMP-3 (Assay V)
Protocol: (§1) The binding assay was performed using scintillation proximity assay (SPA) beads (RPNQ0001) from PerkinElmer and cell membranes from the Amylin 3(a)/CRE-luc cells (as described in Assay (II)) were used. Membranes were prepared in the following way; the cells were rinsed with PBS and incubated with Versene for approximately 5 min before harvesting. The cells were flushed with PBS and the cell-suspension was centrifuged for 5 min at 1000 rpm. Cells were homogenized (ultrathurrax) in a buffer containing 20 mM Na-HEPES and 10 mM EDTA (pH 7.4) and centrifuged at 20.000 rpm for 15 min. The resulting pellet was resuspended, homogenized and centrifuged (20.000 rpm, 15 min) in a buffer containing 20 mM Na-HEPES and 0.1 mM EDTA (pH 7.4, buffer 2). The resulting pellet was resuspended in buffer 2 and protein concentration was measured (BCA protein Assay, Pierce). The homogenate was kept cold during the whole procedure. The membranes were kept at −80° C. until use. The assay was performed in a 384 well Optiplate (PerkinElmer) in a total volume of 40 ul. Membranes were mixed with SPA beads. Final concentration of membranes 35 ng/μL final and SPA beads was 0.05 mg/well. Test-compounds were dissolved in DMSO and further diluted in assay buffer (50 mM Hepes, pH 7.4, 1 mM CaCl2, 5 mM MgCl₂, 0.1% OA and 0.02% Tween20). […] The final mixture was incubated with shaking at 400 rpm for 120 min at 25° C. prior to centrifugation (1500 rpm, 10 min). Samples were analyzed on TopCounter™ (Packard). The IC₅₀ was calculated using (one site binding competition analysis) GraphPad Prism5 as a measure of receptor affinity.

Row | Binder | IC50
21 | B1 | 0.115 nM
22 | B2 | 0.396 nM
23 | B3 | 0.695 nM
24 | K([γGlu-C20 diacid])CNTATCATQRLAEFLRHSSPNFGAIPSSTNVGPHTY-NH2 (disulfide 2-7) | 0.179 nM
25 | B4 | 0.088 nM

Molecular target: T1, human amylin receptor (amylin 3(a) …)
Test: as above
Remark: another data set of the same source
Protocol: as §1

Row | Binder | IC50
26 | B1 | 0.115 nM
27 | B2 | 0.396 nM
28 | B3 | 0.695 nM
29 | K([γGlu-C20 diacid])CNTATCATQRLAEFLRHSSPNFGAIPSSTNVGPHTY-NH2 (disulfide 2-7) | 0.179 nM
30 | B4 | 0.088 nM
